# In patent US20240301039A1 (NEW YORK UNIVERSITY IN ABU DHABI, published 2024):
# B1: nanobody 2NSP23 (VHH)
# VHH: QVQLQESGGGLVQPGGSLRLSCAASGLAFSMYTMGWFRQAPGKEREFVAMIISSGDSTDYADSVKGRFTISRDNGKNTVYLQMDSLKPEDTAVYYCAAPKFRYYFSTSPGDFDSWGQGTQVTVSS
# notes: also called 2NSP23 with His Tag
# Target: T1, uniformly 15N,13C-labelled wild-type SARS-CoV-2 NSP9 with an additional GlyAlaMetGly tetrapeptide at the … (SARS-CoV-2, UniProt P0DTD1 1-7096)
# T1 construct: mature
# Assay: 15N-1H HSQC NMR titration at 278 K
binder,measurement,value
B1,backbone amide cross-peaks that survive at protein/nanobody ratio 1:2,~35%
